Reference: US20090099343A1
Where “and” joins values, the source holds several entries; their conditions need not be identical. Equal values may be shown once.

Tests used:
[1] = molecular target: T1, PrP^Sc, pathogenic prion protein in brain homogenate of RML PrP^Sc+ Balb-c mice (mouse), P04925; assay: bead pull-down from PrP^Sc+ mouse brain homogenate; ELISA
[2] = molecular target: T1, PrP^Sc, pathogenic prion protein in …; assay: bead pull-down, NaCl dissociation of bound PrP^Sc; Western blot

T1 sequence (P04925 23-230 limits assumed): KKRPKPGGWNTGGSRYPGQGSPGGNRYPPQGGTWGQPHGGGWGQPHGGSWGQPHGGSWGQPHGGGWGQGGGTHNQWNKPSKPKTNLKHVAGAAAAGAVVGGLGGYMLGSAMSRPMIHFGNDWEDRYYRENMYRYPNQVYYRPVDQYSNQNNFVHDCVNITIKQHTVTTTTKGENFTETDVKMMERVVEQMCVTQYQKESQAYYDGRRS

Row | Binder | ELISA A405nm [1] [A405nm] | recovery rate following 1.0 M NaCl elution [2]
1 | KKRPKGGG (modifications not checked) [Peptide reagent SEQ ID NO:119] | 0.61 | –
2 | GGGKKKKKKKK (modifications not checked) [Peptide reagent SEQ ID NO:85] | – | 40% and 50%
3 | KKRPKGGG (modifications not checked) [Peptide reagent SEQ ID NO:120] | 0.631 | –
4 | KKRPKGGG (modifications not checked) [Peptide reagent SEQ ID NO:121] | 0.509 | –
5 | KKRPKGGG (modifications not checked) [Peptide reagent SEQ ID NO:122] | 0.503 | –
6 | GGGKKRPKPGG (modifications not checked) [Peptide reagent SEQ ID NO:68] | – | 40% and 50%
